We go through 12 molecules from patent publication US20170283834A1, “Processes for Producing A Fermentation Product Using A Fermenting Organism” (Novozymes A/S, priority 2014, published 2017).

The data set concerns zein. Put plainly: Relative activity assay of protease variants (zein micro titer plate). The class given is biochemical. Conditions: Table 3. The method, then: Each well contains 200 microL of 0.05-0.1% of zein (Sigma), 0.25 mM ZnSO4 and 1% of agar in 20 mM sodium acetate buffer, pH 4.5.
Yeast clones on SC-glucose were inoculated to a well of a 96-well micro titre plate containing YPD+Zn medium and cultivated at 28° C. for 3 days. The culture supernatants were applied to a 96-well zein micro titer plate and incubated at at least 2 temperatures (ex. 60° C. and 65° C., 70° C. and 75° C., 70° C. and 80° C.) for more than 4 hours or overnight. The turbidity of zein in the plate was measured as A630 and the relative activity (higher/lower temperatures) was determined as an indicator of thermoactivity improvement. The clones with higher relative activity than the parental variant were selected and the sequence was determined.

B1: JTP054: protease variant of SEQ ID NO: 3: ΔS5/D79L/S87P (protein, listed as Thermoascus aurantiacus)
chain: MRLVASLTALVALSVPVFPAAVNVKRASSYLEITLSQVSNTLIKAVVQNTGSDELSFVHLNFFKDPAPVKKVSVYRDGSEVQFEGILSRYKSTGLSRDAFTYLAPGESVEDVFDIASTYDLTSGGPVTIRTEGVVPYATANSTDIAGYISYSSNVLTIDVDGAAAATVSKAITPLDRRTRISCSGSRQSALTTALRNAASLANAAADAAQSGSASKFSEYFKTTSSSTRQTVAARLRAVAREASSSSSGATTYYCLDPYGYCSPNVLAYTLPSYNIIANCDIFYTYLPALTSTCHAQDQATTALHEFTHAPGVYSPGTDDLAYGYQAAMGLSSSQAVMNADTYALYANAIYLGC
Regarding B1, the “Relative activity 75° C./70° C.” value was determined as 92%.

B2: JTP055: protease variant of SEQ ID NO: 3: ΔG8/D79L/S87P (protein, listed as Thermoascus aurantiacus)
chain: MRLVASLTALVALSVPVFPAAVNVKRASSYLEITLSQVSNTLIKAVVQNTGSDELSFVHLNFFKDPAPVKKVSVYRDGSEVQFEGILSRYKSTGLSRDAFTYLAPGESVEDVFDIASTYDLTSGGPVTIRTEGVVPYATANSTDIAGYISYSSNVLTIDVDGAAAATVSKAITPLDRRTRISSCSSRQSALTTALRNAASLANAAADAAQSGSASKFSEYFKTTSSSTRQTVAARLRAVAREASSSSSGATTYYCLDPYGYCSPNVLAYTLPSYNIIANCDIFYTYLPALTSTCHAQDQATTALHEFTHAPGVYSPGTDDLAYGYQAAMGLSSSQAVMNADTYALYANAIYLGC
For B2, the “Relative activity 75° C./70° C.” value was determined as 95%.

B3: JTP040: protease variant of SEQ ID NO: 3: T54R/D79L/S87P (protein, listed as Thermoascus aurantiacus)
chain: MRLVASLTALVALSVPVFPAAVNVKRASSYLEITLSQVSNTLIKAVVQNTGSDELSFVHLNFFKDPAPVKKVSVYRDGSEVQFEGILSRYKSTGLSRDAFTYLAPGESVEDVFDIASTYDLTSGGPVTIRTEGVVPYATANSTDIAGYISYSSNVLTIDVDGAAAATVSKAITPLDRRTRISSCSGSRQSALTTALRNAASLANAAADAAQSGSASKFSEYFKTTSSSTRQRVAARLRAVAREASSSSSGATTYYCLDPYGYCSPNVLAYTLPSYNIIANCDIFYTYLPALTSTCHAQDQATTALHEFTHAPGVYSPGTDDLAYGYQAAMGLSSSQAVMNADTYALYANAIYLGC
In the case of B3, the “Relative activity 75° C./65° C.” value turned out to be 71%.

B4: JTP043: protease variant of SEQ ID NO: 3: Q53R/D79L/S87P (protein, listed as Thermoascus aurantiacus)
chain: MRLVASLTALVALSVPVFPAAVNVKRASSYLEITLSQVSNTLIKAVVQNTGSDELSFVHLNFFKDPAPVKKVSVYRDGSEVQFEGILSRYKSTGLSRDAFTYLAPGESVEDVFDIASTYDLTSGGPVTIRTEGVVPYATANSTDIAGYISYSSNVLTIDVDGAAAATVSKAITPLDRRTRISSCSGSRQSALTTALRNAASLANAAADAAQSGSASKFSEYFKTTSSSTRRTVAARLRAVAREASSSSSGATTYYCLDPYGYCSPNVLAYTLPSYNIIANCDIFYTYLPALTSTCHAQDQATTALHEFTHAPGVYSPGTDDLAYGYQAAMGLSSSQAVMNADTYALYANAIYLGC
Take B4: the “Relative activity 75° C./65° C.” value was determined as 80%.

B5: JTP047: protease variant of SEQ ID NO: 3: D79L/S87P/S157K (protein, listed as Thermoascus aurantiacus)
chain: MRLVASLTALVALSVPVFPAAVNVKRASSYLEITLSQVSNTLIKAVVQNTGSDELSFVHLNFFKDPAPVKKVSVYRDGSEVQFEGILSRYKSTGLSRDAFTYLAPGESVEDVFDIASTYDLTSGGPVTIRTEGVVPYATANSTDIAGYISYSSNVLTIDVDGAAAATVSKAITPLDRRTRISSCSGSRQSALTTALRNAASLANAAADAAQSGSASKFSEYFKTTSSSTRQTVAARLRAVAREASSSSSGATTYYCLDPYGYCSPNVLAYTLPSYNIIANCDIFYTYLPALTSTCHAQDQATTALHEFTHAPGVYSPGTDDLAYGYQAAMGLSSKQAVMNADTYALYANAIYLGC
For B5, the “Relative activity 75° C./65° C.” value turned out to be 85%.

B6: JTP045: protease variant of SEQ ID NO: 3: S41R/D79L/S87P (protein, listed as Thermoascus aurantiacus)
chain: MRLVASLTALVALSVPVFPAAVNVKRASSYLEITLSQVSNTLIKAVVQNTGSDELSFVHLNFFKDPAPVKKVSVYRDGSEVQFEGILSRYKSTGLSRDAFTYLAPGESVEDVFDIASTYDLTSGGPVTIRTEGVVPYATANSTDIAGYISYSSNVLTIDVDGAAAATVSKAITPLDRRTRISSCSGSRQSALTTALRNAASLANAAADAAQSGSASKFREYFKTTSSSTRQTVAARLRAVAREASSSSSGATTYYCLDPYGYCSPNVLAYTLPSYNIIANCDIFYTYLPALTSTCHAQDQATTALHEFTHAPGVYSPGTDDLAYGYQAAMGLSSSQAVMNADTYALYANAIYLGC
For the molecule B6, the “Relative activity 75° C./65° C.” value is on record as 82%.

B7: JTP048: protease variant of SEQ ID NO: 3: D79L/S87P/D104R (protein, listed as Thermoascus aurantiacus)
chain: MRLVASLTALVALSVPVFPAAVNVKRASSYLEITLSQVSNTLIKAVVQNTGSDELSFVHLNFFKDPAPVKKVSVYRDGSEVQFEGILSRYKSTGLSRDAFTYLAPGESVEDVFDIASTYDLTSGGPVTIRTEGVVPYATANSTDIAGYISYSSNVLTIDVDGAAAATVSKAITPLDRRTRISSCSGSRQSALTTALRNAASLANAAADAAQSGSASKFSEYFKTTSSSTRQTVAARLRAVAREASSSSSGATTYYCLDPYGYCSPNVLAYTLPSYNIIANCRIFYTYLPALTSTCHAQDQATTALHEFTHAPGVYSPGTDDLAYGYQAAMGLSSSQAVMNADTYALYANAIYLGC
As to B7, the “Relative activity 75° C./65° C.” value stood at 88%.

B8: JTP051: protease variant of SEQ ID NO: 3: S41R/D79L/S87P/A112P/D142L (protein, listed as Thermoascus aurantiacus)
chain: MRLVASLTALVALSVPVFPAAVNVKRASSYLEITLSQVSNTLIKAVVQNTGSDELSFVHLNFFKDPAPVKKVSVYRDGSEVQFEGILSRYKSTGLSRDAFTYLAPGESVEDVFDIASTYDLTSGGPVTIRTEGVVPYATANSTDIAGYISYSSNVLTIDVDGAAAATVSKAITPLDRRTRISSCSGSRQSALTTALRNAASLANAAADAAQSGSASKFREYFKTTSSSTRQTVAARLRAVAREASSSSSGATTYYCLDPYGYCSPNVLAYTLPSYNIIANCDIFYTYLPPLTSTCHAQDQATTALHEFTHAPGVYSPGTLDLAYGYQAAMGLSSSQAVMNADTYALYANAIYLGC
In the case of B8, the “Relative activity 75° C./70° C.” value is reported as 102%.

B9: JTP046: protease variant of SEQ ID NO: 3: D79L/S87P/Q158W (protein, listed as Thermoascus aurantiacus)
chain: MRLVASLTALVALSVPVFPAAVNVKRASSYLEITLSQVSNTLIKAVVQNTGSDELSFVHLNFFKDPAPVKKVSVYRDGSEVQFEGILSRYKSTGLSRDAFTYLAPGESVEDVFDIASTYDLTSGGPVTIRTEGVVPYATANSTDIAGYISYSSNVLTIDVDGAAAATVSKAITPLDRRTRISSCSGSRQSALTTALRNAASLANAAADAAQSGSASKFSEYFKTTSSSTRQTVAARLRAVAREASSSSSGATTYYCLDPYGYCSPNVLAYTLPSYNIIANCDIFYTYLPALTSTCHAQDQATTALHEFTHAPGVYSPGTDDLAYGYQAAMGLSSSWAVMNADTYALYANAIYLGC
On to B9, for which the “Relative activity 75° C./65° C.” value was determined as 96%.

B10: JTP052: protease variant of SEQ ID NO: 3: D79L/S87P/A112P/D142L/S157K (protein, listed as Thermoascus aurantiacus)
chain: MRLVASLTALVALSVPVFPAAVNVKRASSYLEITLSQVSNTLIKAVVQNTGSDELSFVHLNFFKDPAPVKKVSVYRDGSEVQFEGILSRYKSTGLSRDAFTYLAPGESVEDVFDIASTYDLTSGGPVTIRTEGVVPYATANSTDIAGYISYSSNVLTIDVDGAAAATVSKAITPLDRRTRISSCSGSRQSALTTALRNAASLANAAADAAQSGSASKFSEYFKTTSSSTRQTVAARLRAVAREASSSSSGATTYYCLDPYGYCSPNVLAYTLPSYNIIANCDIFYTYLPPLTSTCHAQDQATTALHEFTHAPGVYSPGTLDLAYGYQAAMGLSSKQAVMNADTYALYANAIYLGC
B10: the “Relative activity 75° C./70° C.” value came to 111%.

B11: JTP042: protease variant of SEQ ID NO: 3: Q53K/D79L/S87P/I173V (protein, listed as Thermoascus aurantiacus)
chain: MRLVASLTALVALSVPVFPAAVNVKRASSYLEITLSQVSNTLIKAVVQNTGSDELSFVHLNFFKDPAPVKKVSVYRDGSEVQFEGILSRYKSTGLSRDAFTYLAPGESVEDVFDIASTYDLTSGGPVTIRTEGVVPYATANSTDIAGYISYSSNVLTIDVDGAAAATVSKAITPLDRRTRISSCSGSRQSALTTALRNAASLANAAADAAQSGSASKFSEYFKTTSSSTRKTVAARLRAVAREASSSSSGATTYYCLDPYGYCSPNVLAYTLPSYNIIANCDIFYTYLPALTSTCHAQDQATTALHEFTHAPGVYSPGTDDLAYGYQAAMGLSSSQAVMNADTYALYANAVYLGC
Turning to B11, the “Relative activity 75° C./65° C.” value is 108%.

B12: JTP053: protease variant of SEQ ID NO: 3: S41R/D79L/S87P/A112P/D142L/S157K (protein, listed as Thermoascus aurantiacus)
chain: MRLVASLTALVALSVPVFPAAVNVKRASSYLEITLSQVSNTLIKAVVQNTGSDELSFVHLNFFKDPAPVKKVSVYRDGSEVQFEGILSRYKSTGLSRDAFTYLAPGESVEDVFDIASTYDLTSGGPVTIRTEGVVPYATANSTDIAGYISYSSNVLTIDVDGAAAATVSKAITPLDRRTRISSCSGSRQSALTTALRNAASLANAAADAAQSGSASKFREYFKTTSSSTRQTVAARLRAVAREASSSSSGATTYYCLDPYGYCSPNVLAYTLPSYNIIANCDIFYTYLPPLTSTCHAQDQATTALHEFTHAPGVYSPGTLDLAYGYQAAMGLSSKQAVMNADTYALYANAIYLGC
Regarding B12, the “Relative activity 75° C./70° C.” value was 113%.
